How the values were obtained:
Conditions in all cases: other: L-stereoisomer; least squares fit of induced inward current vs substrate concentration; mean ± standard error, at least 5 determinations
[1] = substrate: N[C@@H](CO)C(=O)O; assay: amino acid-induced inward current in voltage-clamped ASCT1-injected Xenopus oocytes; assay type: cell-based, human
Protocol: (§1) 20-50 nL of ASCT1 RNA (at a concentration of about 400 μg/mL) was injected into defolliculated stage V-VI Xenopus oocytes excised from female Xenopus laevis anesthetized by immersion in 3-aminobenzoic acid for 60 min. Excised oocytes were treated with collagenase II (Sigma Chemical Co., St. Louis, Mo.) in calcium-free Barth's saline solution [comprising 88 mM NaCl, 1 mM KCl, 2.4 mM NaHCO3, 0.82 mM MgSO4, 7.5 mM Tris-HCl (pH 7.6), 50 U/mL Nystatin (Sigma) and 0.1 mg/mL gentamycin (Sigma)] for 60 min., and then incubated overnight at 15° C. in 50% Leibowitz's L-15 media (Grand Island Biological Co. (GIBCO), Long Island, N.Y.). After overnight incubation the oocytes were mechanically defolliculated and then were injected with ASCT-1 RNA and incubated at 19° C. for 48 h (see Kim el al., 1991, Nature 352: 725-728 for further details of Xenopus oocyte preparation and microinjection).
(§2) Amino acid transport in such oocytes was assayed using [^3H] alanine, [^3H] serine or [^35S] cysteine (obtained from New England Nuclear, Boston, Mass.). Briefly, microinjected oocytes were patch-lamped at −60 mV using a Dagan TEV-200 clamp amplifier with an Axon Instruments (Foster City, Calif.) TL-1 A/D interface controlled by pCLAMP software (Axon Instruments) (see Kavanaugh et al., 1992, J. Biol. Chem. 267: 22007-22009 for a detailed review of this methodology) and continuously superfused with ND-96 buffer (consisting of 96 mM NaCl/2 mM KCl/1.8 mM CaCl2/1 mM MgCl2/5 mM HEPES, pH 7.5). For transport measurements, this solution was changed to a solution containing varying concentrations of the radiolabeled amino acids in ND-96 buffer.
(§3) More detailed analyses of ithe kinetics of amino acid influx were performed by least squares linear regression analysis of induced inward current ([I]) plotted as a function of substrate amino acid concentration ([S]), using the equation shown in the legend of Table II.

[2] = substrate: CC(C)[C@H](N)C(=O)O; assay: as above; assay type: cell-based, human
Protocol: as §1, §2, §3

[3] = substrate: N[C@@H](CS)C(=O)O; assay: as above; assay type: cell-based, human
Protocol: as §1, §2, §3

[4] = substrate: C[C@@H](O)[C@H](N)C(=O)O; assay: cells, lysate or membranes
[5] = substrate: C[C@H](N)C(=O)O; assay: cells, lysate or membranes

B1: human ASCT1 neutral amino acid transporter (Homo sapiens) (protein)
chain: MEKSNETNGYLDSAQAGPAAGPGAPGTAAGRARRCAGFLRRQALVLLTVSGVLAGAGLGAALRGLSLSRTQVTYLAFPGEMLLRMLRMIILPLVVCSLVSGAASLDASCLGRLGGIAVAYFGLTTLSASALAVALAFIIKPGSGAQTLQSSDLGLEDSGPPPVPKETVDSFLDLARNLFPSNLVVAAFRTYATDYKVVTQNSSSGNVTHEKIPIGTEIEGMNILGLVLFALVLGVALKKLGSEGEDLIRFFNSLNEATMVLVSWIMWYVPVGIMFLVGSKIVEMKDIIVLVTSLGKYIFASILGHVIHGGIVLPLIYFVFTRKNPFRFLLGLLAPFATAFATCSSSATLPSMMKCIEENNGVDKRISRFILPIGATVNMDGAAIFQCVAAVFIAQLNNVELNAGQIFTILVTATASSVGAAGVPAGGVLTIAIILEAIGLPTHDLPLILAVDWIVDRTTTVVNVEGDALGAGILHHLNQKATKKGEQELAEVKVEAIPNCKSEEETSPLVTHQNPAGPVASAPELESKESVL
notes: expressed in transfected cells; host or cells: Xenopus laevis oocytes injected with in vitro transcribed RNA (pOTV vector)
B1 gave a Km [1] of 88 ± 11 µM, a Km [2] of 390 ± 8 µM and a Km [3] of 29 ± 6 µM. The Km [4] was 137 ± 19 µM and the Km [5] was 71 ± 14 µM.
